From article PMC3566775

Molecular target: Mouse SR-BI CGG mutant (positions 321-323) (mouse) (UniProt Q61009)
Test: radioligand binding

Human high density lipoprotein (HDL), labeled with 125I (complex)
reduction in binding compared to the WT receptor: 20%
